B1: Cyclin-dependent kinase 4 inhibitor C (Homo sapiens), P42773 (parent)
chain: MAEPWGNELASAAARGDLEQLTSLLQNNVNVNAQNGFGRTALQVMKLGNPEIARRLLLRGANPDLKDRTGFAVIHDAARAGFLDTLQTLLEFQADVNIEDNEGNLPLHLAAKEGHLRVVEFLVKHTASNVGHRNHKGDTACDLARLYGRNEVVSLMQANGAGGATNLQ

Variants of: B1
Conditions: with cdk6_human CDK6, Q00534
Sequence of cdk6_human CDK6, Q00534 (Q00534 whole entry): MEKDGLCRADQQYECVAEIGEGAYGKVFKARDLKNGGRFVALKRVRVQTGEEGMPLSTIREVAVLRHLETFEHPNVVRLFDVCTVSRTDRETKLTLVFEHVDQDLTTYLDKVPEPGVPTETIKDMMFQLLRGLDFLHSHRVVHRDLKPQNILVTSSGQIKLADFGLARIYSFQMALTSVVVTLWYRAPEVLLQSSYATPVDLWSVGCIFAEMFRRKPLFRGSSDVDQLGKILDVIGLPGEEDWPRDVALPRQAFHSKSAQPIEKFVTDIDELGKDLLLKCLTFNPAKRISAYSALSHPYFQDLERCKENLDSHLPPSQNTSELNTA

Variant | effect of a mutation on the interaction
A61D | decreasing interaction
F37I | disrupting interaction
